The source of these data is patent US20190002514A1 (Dana-Farber, published 2019).

Starred links: 1 amine or outer side, 2 acyl side, 3 side chain; linkers in the order of their positions; H or OH if unused. Positions of bridges follow the written chain, without caps; N, C: chain ends. Non-standard residues stand in square brackets, D forms with d. No end group written: not given here. *: point of attachment. Nip(3R) = O=C([C@@H]1CCCN([*:1])C1)[*:2]; S5 = C=CCCC[C@](C)(N)C(=O)O; Acryloyl = C=CC(=O)*

Assay [1] deals with T1, BFL-1ΔC C4S/C19S (human, UniProt Q16548 1-153).
T1 construct: range 1-153; Recombinant, E. coli; made by site-directed mutagenesis; also called His-BFL-1ΔC C4S/C19S; C55-only BFL-1; not shown: N-terminal His tag from the pET19b vector
T1 sequence (looked up): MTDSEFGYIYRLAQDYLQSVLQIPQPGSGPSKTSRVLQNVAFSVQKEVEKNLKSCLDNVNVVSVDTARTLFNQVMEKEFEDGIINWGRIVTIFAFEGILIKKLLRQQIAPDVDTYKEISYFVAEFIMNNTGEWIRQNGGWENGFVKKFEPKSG
Nature of the assay: covalent conjugation, 10:1 peptide:protein, reducing and denaturing gel, Coomassie. The method, then:
Processing for gel electrophoresis and Coomassie staining was performed as above.

The target in assay [2] is T2, Bfl-1 (recombinant protein of Examples 1-4) (UniProt Q16548 1-153, limits assumed).
T2 construct: also called 9xHis-tagged Bfl-1
T2 sequence (looked up): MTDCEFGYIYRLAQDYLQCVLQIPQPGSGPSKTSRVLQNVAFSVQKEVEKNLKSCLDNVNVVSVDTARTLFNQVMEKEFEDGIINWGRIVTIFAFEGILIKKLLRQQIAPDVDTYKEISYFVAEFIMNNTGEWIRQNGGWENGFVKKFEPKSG
Nature of the assay: fluorescence polarization: FITC-labelled SAHB, anti-apoptotic protein serially diluted from 1 µM. The method, then:
(§1) The solution-state equilibrium binding assay was used to determine binding affinities of the stapled peptides to the anti-apoptotic proteins. Proteins were serially diluted from 1 μM, then combined with FITC-labeled SAHB and polarization measured at 5 min on a microplate reader. We then calculated dissociation constants (KD) by nonlinear regression analysis of dose-response curves.
For orientation: Polarisation of emitted light reports the rotation of a fluorescent probe.

The target of assay [3] is T3, MCL-1 (recombinant protein of Examples 1-4) (UniProt Q07820 170-327, limits assumed).
T3 construct: also called MCL-I
The assay is described as above. As for the experimental part:
as §1

Assay [4] deals with T4, BFL-1 C4S/C19S/C55S.
T4 construct: member of m33; m12 without cysteines; also called BFL-1ΔC C4S/C19S/C55S
T4 chain: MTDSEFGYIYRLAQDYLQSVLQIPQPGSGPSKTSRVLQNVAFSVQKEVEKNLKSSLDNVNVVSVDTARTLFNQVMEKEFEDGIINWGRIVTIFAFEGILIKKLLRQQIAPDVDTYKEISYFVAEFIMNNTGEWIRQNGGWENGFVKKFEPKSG
Nature of the assay: biolayer interferometry (Octet RED384): biotin-PEG-NOXA SAHB on super streptavidin tips, BFL-1ΔC construct in solution. As for the experimental part:
(§2) Excess streptavidin was quenched by incubation with 2 μg/mL biocytin. The tips were then washed with kinetics buffer and soaked in a serial dilution of BFL-1ΔC for 10 min to measure association rate, followed by a 15 min incubation in kinetics buffer to measure dissociation rate. Dissociation constants were calculated using Octet Data Analysis version 9.0.
(In general: Biolayer interferometry detects binding as a change in optical thickness at a sensor tip.)

The target of assay [5] is T5, BFL-1ΔC (aa 1-153) (human, UniProt Q16548 1-153).
T5 construct: Recombinant, expressed in E. coli; the recombinant construct's species is not restated; also called wild-type BFL-1ΔC; BFL-1 WT; not shown: N-terminal His tag and vector-derived linker of pET19b
T5 sequence: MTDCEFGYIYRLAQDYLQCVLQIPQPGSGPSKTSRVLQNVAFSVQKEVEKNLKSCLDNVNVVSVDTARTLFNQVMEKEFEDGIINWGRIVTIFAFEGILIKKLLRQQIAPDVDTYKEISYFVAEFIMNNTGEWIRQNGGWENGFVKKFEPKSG
Described as above. The method, then: as §2

Assay [6] concerns the target T1, BFL-1ΔC C4S/C19S. The description is as above. As for the experimental part:
as §2

For assay [7], the target named is T5, BFL-1ΔC (aa 1-153). Nature of the assay: covalent conjugation assay, gel shift.
Assay [8] concerns the target T6, HA-BFL-1ΔC C4S/C19S (human, UniProt Q16548 1-153).
T6 construct: range 1-153; tested in lysates and in intact cells; also called expressed BFL-1; not shown: HA tag
T6 sequence (looked up): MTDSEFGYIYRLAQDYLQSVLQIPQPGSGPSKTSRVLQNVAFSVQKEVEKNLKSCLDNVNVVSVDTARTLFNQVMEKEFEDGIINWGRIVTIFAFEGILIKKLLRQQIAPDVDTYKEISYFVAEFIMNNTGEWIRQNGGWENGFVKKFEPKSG
Nature of the assay: crosslinking in lysates of transfected 293T cells, anti-HA and biotin western analysis. The method, then:
For lysate experiments, cells were trypsinized 24 hours post-transfection, washed with PBS, and lysed by incubation with 1% CHAPS lysis buffer (150 mM NaCl, 50 mM Tris pH 7.4, 100 mM DTT). Protein concentration of the soluble fraction was measured using a BCA kit according to manufacturer's instructions (Thermo Scientific). […] Samples were then boiled in LDS buffer and subjected to western analysis using 1:1000 dilutions of HA (Sigma-Aldrich, #12CA5) and biotin (Abcam, #53494) antibodies. […] After 24 h, cells were trypsinized, washed with PBS, lysed in 1% CHAPS buffer, and the supernatant collected for protein concentration determination by BCA kit. […] The mixtures were then subjected to HA or FLAG (Sigma-Aldrich, F7425) immunoprecipitation, followed by western analysis using 1:1000 dilutions of HA, FLAG, biotin, and BID (Santa Cruz sc-11423) antibodies. […] Cells were harvested and lysed as above, and incubated overnight with anti-HA agarose beads (Pierce). The beads were washed 3 times with lysis buffer, eluted by boiling in LDS buffer, and subjected to western analysis with HA and biotin antibodies.

Assay [9] addresses T7, native BFL-1 (A375P melanoma cells) (human, UniProt Q16548 1-175).
T7 construct: also called native mitochondrial BFL-1
T7 sequence: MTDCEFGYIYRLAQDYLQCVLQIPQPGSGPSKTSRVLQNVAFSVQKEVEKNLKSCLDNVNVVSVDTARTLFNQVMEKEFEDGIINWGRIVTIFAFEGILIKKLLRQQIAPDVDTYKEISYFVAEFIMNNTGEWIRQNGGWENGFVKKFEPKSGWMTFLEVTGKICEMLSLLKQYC
Nature of the assay: A375P lysates with biotinylated peptides, streptavidin pull-down, BFL-1 western analysis; also biotinylation of purified mitochondria.

T3 sequence (Q07820 170-327 limits assumed): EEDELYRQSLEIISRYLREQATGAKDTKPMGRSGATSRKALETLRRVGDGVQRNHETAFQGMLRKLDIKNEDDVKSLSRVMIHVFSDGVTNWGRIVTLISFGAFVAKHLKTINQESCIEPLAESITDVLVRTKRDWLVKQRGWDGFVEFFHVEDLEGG

B1: BIM SAHBA bearing warhead 1 (peptide)
peptide: [(3S)‑1‑acryloylpyrrolidine‑3‑carboxylic acid]IAQELR[S5]IGD[S5]FNAYYARR
modifications: staple 8-12
notes: Member of the BIM SAHBA warhead panel 1-8
As to B1, the binding result in assay [1] is listed as “binds”.

B2: BIM SAHBA bearing warhead 8 (peptide)
peptide: Acryloyl-IAQELR[S5]IGD[S5]FNAYYARR
modifications: staple 7-11
notes: as for B1
B2: the binding result in assay [1] is reported as “binds”.

B3: NOXA SAHBA (peptide)
peptide: AELEVECATQLR[S5]FGD[S5]LNFRQKLL
modifications: staple 13-17; also: N-terminal PEG-biotin or FITC depending on assay
notes: Stapled NOXA BH3 (aa 19-43) with native C25; also called WT NOXA SAHB; wild-type NOXA SAHBA
By EC50 (read off the curve) is commonly meant the concentration needed to bring the measured effect to its halfway point. By Kd is commonly meant the constant that tells how readily two partners part at equilibrium. A low value points to tighter binding. Turning to B3, the “EC50 (read off the curve)” value was approximately 100 nM in assay [2] and approximately 200 nM in [3]. The dissociation constant Kd was 118 nM in assay [4], 122 nM in assay [5] and 165 nM in assay [6].

B4: NOXA SAHBA C25S (peptide)
peptide: AELEVESATQLR[S5]FGD[S5]LNFRQKLL
modifications: staple 13-17; also: N-terminal PEG-biotin or FITC depending on assay
notes: Stapled NOXA BH3 with C25S; also called NOXA C25S SAHB; C25S mutant peptide
On to B4, for which the dissociation constant Kd was 58.2 nM in [4], 46.6 nM in assay [5] and 47.2 nM in assay [6].
With AELEVECATQLR[S5]YGD[S5]LNFRQKLL (staple 13-17; also: FITC-labelled for FP assay) [NOXA SAHBA F32Y], in assay [2], the “EC50 (read off the curve)” value is approximately 200 nM. Also, the binding result in [3] is on record as “no binding (tested: 1e-6 M)”.

B5: NOXA SAHBA bearing warhead 5 (peptide)
peptide: Acryloyl-PEVESATQLR[S5]FGD[S5]LNFRQKLL
modifications: staple 11-15; also: X1 proline L or D not settled
notes: Member of the NOXA SAHBA warhead panel 1-8
Turning to B5, in assay [1], the binding result is “binds”.

B6: BIM SAHBA-3 (peptide)
peptide: [Nip(3R)](Acryloyl)IAQELR[S5]IGD[S5]FNAYYARR
modifications: staple 8-12
notes: Warhead-bearing BIM SAHBA (aa 147-166); also called BIM SAHBA-WH with warhead 3; biotinylated BIM SAHBA-3
In the case of B6, the binding result in assay [7], in assay [1], in assay [8] and in assay [9] was “binds” each time.

B7: NOXA SAHBA bearing warhead 1 (peptide)
peptide: Acryloyl-[(3S)‑pyrrolidine‑3‑carboxylic acid]EVESATQLR[S5]FGD[S5]LNFRQKLL
modifications: staple 11-15
notes: as for B5
Take B7: the binding result in assay [1] is on record as “binds”.
